{
  "source": "paper PMC4604457",
  "key": {"[1]": {"target": "N-MBP-ORF3-A647 (not stated | Hepatitis E virus genotype 1) (UniProt O90299)", "assay": "MST"}, "[2]": {"target": "N-MBP-ORF3-A647 (not stated | Hepatitis E virus genotype 1) (UniProt O90299)", "assay": "MST; as a7 but at 37 °C (temperature series), pH 7"}, "[3]": {"target": "N-MBP-ORF3-A647 (not stated | Hepatitis E virus genotype 1) (UniProt O90299)", "assay": "MST; as a7 but at pH 8.0 (pH series), 30 °C"}, "[4]": {"target": "N-MBP-ORF3-A647 (not stated | Hepatitis E virus genotype 1) (UniProt O90299)", "assay": "MST; as a7 but at 41 °C (temperature series), pH 7"}, "[5]": {"target": "N-MBP-ORF3-A647 (not stated | Hepatitis E virus genotype 1) (UniProt O90299)", "assay": "MST; as a7 but at pH 6.0 (pH series), 30 °C"}, "[6]": {"target": "N-MBP-ORF3-A647 (not stated | Hepatitis E virus genotype 1) (UniProt O90299)", "assay": "MST; pH 7"}, "[7]": {"target": "N-MBP-ORF3-A647 (not stated | Hepatitis E virus genotype 1) (UniProt O90299)", "assay": "MST; as a7 but at 35 °C (temperature series), pH 7"}},
  "note": "pEC50: −log10 of the molar value.",
  "data": [
    {"substance": "N-MBP-Hel (domain or fragment)", "values": [
      {"measurement": "pEC50", "setting": "[1]", "result": 7.06}
    ]},
    {"substance": "N-MBP-Met (domain or fragment)", "values": [
      {"measurement": "pEC50", "setting": "[1]", "result": 7.47}
    ]},
    {"substance": "N-MBP-Plp (domain or fragment)", "values": [
      {"measurement": "pEC50", "setting": "[2]", "result": 7.80},
      {"measurement": "pEC50", "setting": "[3]", "result": 8.22},
      {"measurement": "pEC50", "setting": "[4]", "result": 7.72},
      {"measurement": "pEC50", "setting": "[5]", "result": 7.72},
      {"measurement": "pEC50", "setting": "[6]", "result": 8.82},
      {"measurement": "pEC50", "setting": "[1]", "result": 9.52},
      {"measurement": "pEC50", "setting": "[7]", "result": 8.55}
    ]},
    {"substance": "N-MBP-Pvx (domain or fragment)", "values": [
      {"measurement": "pEC50", "setting": "[1]", "result": 8.80}
    ]},
    {"substance": "N-MBP-X (domain or fragment)", "values": [
      {"measurement": "pEC50", "setting": "[1]", "result": 8.25}
    ]}
  ]
}
